Assay results published in the supplement of paper PMC9112550, “Optimization of the antimicrobial peptide Bac7 by deep mutational scanning” (BMC Biology, 2022).

System: Escherichia coli TOP10
Assay: shrunken log2 fold change of peptide-encoding DNA abundance (4.5 h post-induction vs induction); higher = less antimicrobial activity (less host growth inhibition)
Details: time post-induction: 4.5 h; library: site-saturation at positions 5, 18, 19, 20
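Also: peptides expressed intracellularly from a pBAD plasmid library in pooled LB shake-flask culture, induced with 0.3% L-arabinose, DNA abundance read by NGS, three biological replicates, DESeq2 with apeglm shrinkage.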

Row | Sequence | shrunken log2 fold change
1 | RRIRWRPPRLPRPRPRPAHRPRP | 0.49
2 | RRIRWRPPRLPRPRPRPAIHPRP | 0.039
3 | RRIRWRPPRLPRPRPRPALCPRP | 0.331
4 | RRIRWRPPRLPRPRPRPALIPRP | 0.0212
5 | RRIRWRPPRLPRPRPRPANEPRP | 0.134
6 | RRIRWRPPRLPRPRPRPAPVPRP | 0.433
7 | RRIRWRPPRLPRPRPRPARVPRP | 0.413
8 | RRIRWRPPRLPRPRPRPASTPRP | 0.349
9 | RRIRWRPPRLPRPRPRPAVMPRP | 0.0971
10 | RRIRWRPPRLPRPRPRPAVVPRP | 0.0979
11 | RRIRWRPPRLPRPRPRPAWSPRP | 0.265
12 | RRIRWRPPRLPRPRPRPAWWPRP | 0.691
13 | RRIRWRPPRLPRPRPRPCAEPRP | 0.618
14 | RRIRWRPPRLPRPRPRPCFCPRP | 0.126
15 | RRIRWRPPRLPRPRPRPCFSPRP | -0.176
16 | RRIRWRPPRLPRPRPRPCGDPRP | 0.183
17 | RRIRWRPPRLPRPRPRPCGPPRP | 0.183
18 | RRIRWRPPRLPRPRPRPCGQPRP | 0.137
19 | RRIRWRPPRLPRPRPRPCGWPRP | 0.314
20 | RRIRWRPPRLPRPRPRPCILPRP | -0.39
21 | RRIRWRPPRLPRPRPRPCLGPRP | 0.0309
22 | RRIRWRPPRLPRPRPRPCMDPRP | -0.18
23 | RRIRWRPPRLPRPRPRPCMFPRP | -0.244
24 | RRIRWRPPRLPRPRPRPCNFPRP | -0.464
25 | RRIRWRPPRLPRPRPRPCNHPRP | -0.427

Row | Sequence | shrunken log2 fold change
26 | RRIRWRPPRLPRPRPRPCNTPRP | -0.169
27 | RRIRWRPPRLPRPRPRPCNYPRP | -0.2
28 | RRIRWRPPRLPRPRPRPCSNPRP | -0.0711
29 | RRIRWRPPRLPRPRPRPCSPPRP | -0.106
30 | RRIRWRPPRLPRPRPRPCTFPRP | -0.72
31 | RRIRWRPPRLPRPRPRPCTTPRP | -0.183
32 | RRIRWRPPRLPRPRPRPCTWPRP | -0.217
33 | RRIRWRPPRLPRPRPRPCVKPRP | -0.0416
34 | RRIRWRPPRLPRPRPRPCWFPRP | 0.0945
35 | RRIRWRPPRLPRPRPRPCWNPRP | 0.11
36 | RRIRWRPPRLPRPRPRPCYAPRP | -0.345
37 | RRIRWRPPRLPRPRPRPCYTPRP | -0.382
38 | RRIRWRPPRLPRPRPRPDAFPRP | 0.0334
39 | RRIRWRPPRLPRPRPRPDASPRP | 0.364
40 | RRIRWRPPRLPRPRPRPDCKPRP | -0.0137
41 | RRIRWRPPRLPRPRPRPDCWPRP | 0.967
42 | RRIRWRPPRLPRPRPRPDECPRP | -0.012
43 | RRIRWRPPRLPRPRPRPDEEPRP | 0.215
44 | RRIRWRPPRLPRPRPRPDEYPRP | -0.0763
45 | RRIRWRPPRLPRPRPRPDFHPRP | -0.239
46 | RRIRWRPPRLPRPRPRPDGPPRP | 0.199
47 | RRIRWRPPRLPRPRPRPDIPPRP | -0.367
48 | RRIRWRPPRLPRPRPRPDLMPRP | 0.325
49 | RRIRWRPPRLPRPRPRPDLPPRP | 0.0222
50 | RRIRWRPPRLPRPRPRPDMQPRP | 0.337

Row | Sequence | shrunken log2 fold change
51 | RRIRWRPPRLPRPRPRPDPCPRP | -0.026
52 | RRIRWRPPRLPRPRPRPDPEPRP | 0.159
53 | RRIRWRPPRLPRPRPRPDPSPRP | -0.0349
54 | RRIRWRPPRLPRPRPRPDSPPRP | 0.0588
55 | RRIRWRPPRLPRPRPRPDTLPRP | -0.134
56 | RRIRWRPPRLPRPRPRPDTVPRP | -0.0246
57 | RRIRWRPPRLPRPRPRPDYEPRP | -0.0912
58 | RRIRWRPPRLPRPRPRPDYHPRP | -0.219
59 | RRIRWRPPRLPRPRPRPDYMPRP | -0.0885
60 | RRIRWRPPRLPRPRPRPEAKPRP | 0.0319
61 | RRIRWRPPRLPRPRPRPECFPRP | 0.671
62 | RRIRWRPPRLPRPRPRPECIPRP | 0.872
63 | RRIRWRPPRLPRPRPRPEDAPRP | 0.00499
64 | RRIRWRPPRLPRPRPRPEDCPRP | -0.00079
65 | RRIRWRPPRLPRPRPRPEDSPRP | 0.769
66 | RRIRWRPPRLPRPRPRPEERPRP | 0.0923
67 | RRIRWRPPRLPRPRPRPEFGPRP | 0.393
68 | RRIRWRPPRLPRPRPRPEFNPRP | 0.609
69 | RRIRWRPPRLPRPRPRPEGGPRP | 0.567
70 | RRIRWRPPRLPRPRPRPEGIPRP | -0.00186
71 | RRIRWRPPRLPRPRPRPEGPPRP | 0.438
72 | RRIRWRPPRLPRPRPRPEGWPRP | 1.39
73 | RRIRWRPPRLPRPRPRPEHSPRP | 0.114
74 | RRIRWRPPRLPRPRPRPEIPPRP | -0.142
75 | RRIRWRPPRLPRPRPRPEKEPRP | 0.0112

Row | Sequence | shrunken log2 fold change
76 | RRIRWRPPRLPRPRPRPEKLPRP | 0.225
77 | RRIRWRPPRLPRPRPRPEKPPRP | 2.12
78 | RRIRWRPPRLPRPRPRPEMNPRP | 0.753
79 | RRIRWRPPRLPRPRPRPENKPRP | -0.13
80 | RRIRWRPPRLPRPRPRPENNPRP | -0.0683
81 | RRIRWRPPRLPRPRPRPENWPRP | 0.254
82 | RRIRWRPPRLPRPRPRPEQCPRP | -0.0195
83 | RRIRWRPPRLPRPRPRPETHPRP | 0.756
84 | RRIRWRPPRLPRPRPRPETYPRP | -0.231
85 | RRIRWRPPRLPRPRPRPEYKPRP | 0.472
86 | RRIRWRPPRLPRPRPRPEYQPRP | 0.0269
87 | RRIRWRPPRLPRPRPRPFCEPRP | 0.376
88 | RRIRWRPPRLPRPRPRPFCTPRP | -0.137
89 | RRIRWRPPRLPRPRPRPFEYPRP | -0.331
90 | RRIRWRPPRLPRPRPRPFGCPRP | -0.274
91 | RRIRWRPPRLPRPRPRPFGMPRP | -0.283
92 | RRIRWRPPRLPRPRPRPFGPPRP | 0.0591
93 | RRIRWRPPRLPRPRPRPFIRPRP | 0.0247
94 | RRIRWRPPRLPRPRPRPFIWPRP | 0.205
95 | RRIRWRPPRLPRPRPRPFLCPRP | -0.139
96 | RRIRWRPPRLPRPRPRPFMEPRP | -0.239
97 | RRIRWRPPRLPRPRPRPFPCPRP | -0.0902
98 | RRIRWRPPRLPRPRPRPFPGPRP | -0.0199
99 | RRIRWRPPRLPRPRPRPFPLPRP | -0.297
100 | RRIRWRPPRLPRPRPRPFPNPRP | -0.138

Row | Sequence | shrunken log2 fold change
101 | RRIRWRPPRLPRPRPRPFQPPRP | -0.0697
102 | RRIRWRPPRLPRPRPRPFSRPRP | -0.0399
103 | RRIRWRPPRLPRPRPRPFTSPRP | -0.0735
104 | RRIRWRPPRLPRPRPRPFWTPRP | 0.0519
105 | RRIRWRPPRLPRPRPRPFYAPRP | -0.174
106 | RRIRWRPPRLPRPRPRPGAQPRP | 0.655
107 | RRIRWRPPRLPRPRPRPGATPRP | 1.02
108 | RRIRWRPPRLPRPRPRPGCVPRP | 0.607
109 | RRIRWRPPRLPRPRPRPGDAPRP | 0.418
110 | RRIRWRPPRLPRPRPRPGDKPRP | -0.00136
111 | RRIRWRPPRLPRPRPRPGFVPRP | 0.291
112 | RRIRWRPPRLPRPRPRPGGHPRP | 0.494
113 | RRIRWRPPRLPRPRPRPGHMPRP | -0.0823
114 | RRIRWRPPRLPRPRPRPGKDPRP | -0.222
115 | RRIRWRPPRLPRPRPRPGKMPRP | 0.0641
116 | RRIRWRPPRLPRPRPRPGKNPRP | 0.13
117 | RRIRWRPPRLPRPRPRPGLEPRP | 1.46
118 | RRIRWRPPRLPRPRPRPGLTPRP | 0.0693
119 | RRIRWRPPRLPRPRPRPGLVPRP | 0.449
120 | RRIRWRPPRLPRPRPRPGNIPRP | -0.472
121 | RRIRWRPPRLPRPRPRPGQFPRP | 0.061
122 | RRIRWRPPRLPRPRPRPGSNPRP | 0.227
123 | RRIRWRPPRLPRPRPRPGVNPRP | 0.0981
124 | RRIRWRPPRLPRPRPRPGWNPRP | 0.238
125 | RRIRWRPPRLPRPRPRPGWVPRP | 0.224

Row | Sequence | shrunken log2 fold change
126 | RRIRWRPPRLPRPRPRPGWYPRP | -0.0191
127 | RRIRWRPPRLPRPRPRPGYRPRP | 0.0673
128 | RRIRWRPPRLPRPRPRPGYYPRP | -0.125
129 | RRIRWRPPRLPRPRPRPHAQPRP | 0.0298
130 | RRIRWRPPRLPRPRPRPHCAPRP | -0.0143
131 | RRIRWRPPRLPRPRPRPHDLPRP | -0.0525
132 | RRIRWRPPRLPRPRPRPHERPRP | 0.156
133 | RRIRWRPPRLPRPRPRPHFKPRP | -0.179
134 | RRIRWRPPRLPRPRPRPHGMPRP | 0.0365
135 | RRIRWRPPRLPRPRPRPHGQPRP | -0.0861
136 | RRIRWRPPRLPRPRPRPHIVPRP | -0.102
137 | RRIRWRPPRLPRPRPRPHIYPRP | -0.358
138 | RRIRWRPPRLPRPRPRPHLMPRP | -0.0519
139 | RRIRWRPPRLPRPRPRPHMFPRP | -0.0668
140 | RRIRWRPPRLPRPRPRPHPHPRP | -0.0616
141 | RRIRWRPPRLPRPRPRPHSEPRP | -0.162
142 | RRIRWRPPRLPRPRPRPHTSPRP | -0.672
143 | RRIRWRPPRLPRPRPRPHYSPRP | -0.279
144 | RRIRWRPPRLPRPRPRPHYTPRP | -0.638
145 | RRIRWRPPRLPRPRPRPICKPRP | -0.0506
146 | RRIRWRPPRLPRPRPRPICLPRP | 0.0313
147 | RRIRWRPPRLPRPRPRPIDSPRP | -0.0713
148 | RRIRWRPPRLPRPRPRPIEFPRP | -0.0119
149 | RRIRWRPPRLPRPRPRPIGIPRP | -0.0434
150 | RRIRWRPPRLPRPRPRPIGNPRP | 0.137
